Data as given in patent US20200103410A1 (ECS PROGASTRIN, published 2020).

T1: human progastrin (full length) (human)
T1 construct: also called hPG; PG
T1 chain: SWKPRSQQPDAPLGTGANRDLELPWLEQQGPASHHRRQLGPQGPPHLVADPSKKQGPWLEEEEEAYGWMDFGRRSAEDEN

B1: mAb19 (hybridoma 1B3B4F11) (antibody, V domains shown)
VH: DVQLQESGPGLVKPSQSLSLTCTVTGYSITSDYAWNWIRQFPGNKLEWMGYISFSGYTSYNPSLKSRISVTRDTSRNQFFLQLTSVTTEDTATYYCAREVNYGDSYHFDYWGQGTIVTVSS
VL: QLALTQSSSASFSLGASAKLTCTLSSQHRTYTIEWYQQQSLKPPKYVMEVKKDGSHSTGHGIPDRFSGSSSGADRYLSISNIQPEDEAIYICGVGDAIKGQSVFVFGGGTKVTVL
notes: Murine monoclonal antibody
B2: mAb16 (hybridoma 1E9D9B6) (antibody, V domains shown)
VH: QVQLQQSGAELVKPGASVKLSCKASGYTFTSYYMYWVKQRPGQGLEWIGEINPSNGGTNFNEKFKSKATLTVDKSSSTAYMQLSSLTSEDSAVYYCTRGGYYPFDYWGQGTTLTVSS
VL: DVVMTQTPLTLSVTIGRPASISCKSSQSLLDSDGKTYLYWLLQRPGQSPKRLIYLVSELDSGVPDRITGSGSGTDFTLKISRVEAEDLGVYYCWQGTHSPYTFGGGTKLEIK
notes: Murine monoclonal antibody
B3: mAb13 (hybridoma 2C6C3C7) (antibody, V domains shown)
VH: EVQLVESGGGLVQPGGSLKLSCAASGFIFSSYGMSWVRQSPDRRLELVASINTFGDRTYYPDSVKGRFTISRDNAKNTLYLQMTSLKSEDTAIYYCARGTGTYWGQGTTLTVSS
VL: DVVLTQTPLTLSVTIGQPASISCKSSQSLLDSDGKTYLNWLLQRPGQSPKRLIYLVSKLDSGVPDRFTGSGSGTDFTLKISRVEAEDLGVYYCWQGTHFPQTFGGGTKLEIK
notes: Murine monoclonal antibody
B4: mAb4 (hybridoma 20D2C3G2) (antibody, V domains shown)
VH: QVQLQQSGAELMKPGASVKISCKATGYTFSSSWIEWLKQRPGHGLEWIGEFLPGSGSTDYNEKFKGKATFTADTSSDTAYMLLSSLTSEDSAVYYCATDGNYDWFAYWGQGTLVTVSA
VL: DLVMTQTPLSLPVSLGDQASISCRSSQSLVHSSGVTYLHWYLQKPGQSPKLLIYKVSNRFSGVPDRFSGSGSGTDFTLKISRVEAEDLGVYFCSQSTHVPPTFGSGTKLEIK
notes: Murine monoclonal antibody
B5: mAb3 (hybridoma 6B5B11C10) (antibody, V domains shown)
VH: EVQLQQSGTVLARPGASVKMSCKASGYIFTSYWVHWVKQRPGQGLEWIGGFYPGNSDSRYNQKFKGKATLTAVTSASTAYMDLSSLTNEDSAVYFCTRRDSPQYWGQGTTLTVSS
VL: DVLMTQTPLSLPVSLGDQASISCRSSQSIVHSNGNTYLEWYLQKPGQSPKLLIYKVSNRFSGVPDRFSGSGSGTDFTLKISRLEAEDLGVYYCFQGSHVPFTFGGGTKLEIK
notes: Murine monoclonal antibody

Molecular target: T1, human progastrin (full length)
Assay: epitope mapping (no details given)

Binder | binding result
B1 | binds
B2 | binds
B3 | binds
B4 | binds
B5 | binds
